These results are taken from PMC4158885 (The EMBO Journal, 2014).

The target in assay [1] is T1, ctPan2 Δ343–352 (PID deletion in full-length ctPan2) (Chaetomium thermophilum, UniProt G0SAK8 1-1170, Δ343–352).
T1 sequence (looked up): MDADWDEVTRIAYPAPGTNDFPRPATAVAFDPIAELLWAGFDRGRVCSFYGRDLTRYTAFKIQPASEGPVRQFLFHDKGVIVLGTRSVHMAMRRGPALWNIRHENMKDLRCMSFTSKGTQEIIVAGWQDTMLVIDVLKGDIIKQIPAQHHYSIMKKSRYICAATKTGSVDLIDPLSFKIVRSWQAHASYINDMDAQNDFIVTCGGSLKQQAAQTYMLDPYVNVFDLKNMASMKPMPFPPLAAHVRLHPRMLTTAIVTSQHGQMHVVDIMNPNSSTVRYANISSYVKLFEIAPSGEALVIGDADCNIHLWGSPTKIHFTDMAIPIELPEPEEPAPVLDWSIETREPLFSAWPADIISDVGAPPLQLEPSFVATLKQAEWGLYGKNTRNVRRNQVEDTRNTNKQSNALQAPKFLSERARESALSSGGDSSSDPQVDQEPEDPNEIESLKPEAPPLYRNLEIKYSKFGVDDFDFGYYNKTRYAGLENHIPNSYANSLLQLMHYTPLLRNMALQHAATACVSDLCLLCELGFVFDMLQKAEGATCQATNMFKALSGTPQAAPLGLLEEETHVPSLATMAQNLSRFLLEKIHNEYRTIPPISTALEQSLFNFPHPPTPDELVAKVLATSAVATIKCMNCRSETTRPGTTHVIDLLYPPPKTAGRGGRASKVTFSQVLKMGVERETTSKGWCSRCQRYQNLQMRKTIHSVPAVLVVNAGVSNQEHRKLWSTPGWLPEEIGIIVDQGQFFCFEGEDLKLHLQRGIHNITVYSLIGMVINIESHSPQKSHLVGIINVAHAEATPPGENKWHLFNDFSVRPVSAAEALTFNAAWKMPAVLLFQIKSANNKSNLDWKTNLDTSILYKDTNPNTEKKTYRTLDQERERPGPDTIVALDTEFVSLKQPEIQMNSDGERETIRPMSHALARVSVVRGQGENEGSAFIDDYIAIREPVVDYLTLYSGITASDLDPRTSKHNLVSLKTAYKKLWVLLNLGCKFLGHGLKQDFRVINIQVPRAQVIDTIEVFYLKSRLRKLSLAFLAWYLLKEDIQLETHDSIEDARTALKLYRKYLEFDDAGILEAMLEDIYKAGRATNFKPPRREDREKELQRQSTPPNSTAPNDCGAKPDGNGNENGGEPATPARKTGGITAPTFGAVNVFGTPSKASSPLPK
In words: SEC; separately purified ctPan2 constructs and ctPan3 PKC dimer mixed 1:1 at 1 μM, 15 min at room temperature; Superdex 200 Increase 3.2/300 in 20 mM Tris pH 8.0, 500 mM NaCl, 2 mM TCEP; fractions on SDS–PAGE. Particulars: both partners purified.

For assay [2], the target named is T2, ctPan2 Δ353–375 (PID deletion in full-length ctPan2) (Chaetomium thermophilum, UniProt G0SAK8 1-1170, Δ353–375).
T2 construct: Pan2, Chaetomium thermophilum, full-length context with an internal deletion of residues 353-375
T2 sequence (looked up): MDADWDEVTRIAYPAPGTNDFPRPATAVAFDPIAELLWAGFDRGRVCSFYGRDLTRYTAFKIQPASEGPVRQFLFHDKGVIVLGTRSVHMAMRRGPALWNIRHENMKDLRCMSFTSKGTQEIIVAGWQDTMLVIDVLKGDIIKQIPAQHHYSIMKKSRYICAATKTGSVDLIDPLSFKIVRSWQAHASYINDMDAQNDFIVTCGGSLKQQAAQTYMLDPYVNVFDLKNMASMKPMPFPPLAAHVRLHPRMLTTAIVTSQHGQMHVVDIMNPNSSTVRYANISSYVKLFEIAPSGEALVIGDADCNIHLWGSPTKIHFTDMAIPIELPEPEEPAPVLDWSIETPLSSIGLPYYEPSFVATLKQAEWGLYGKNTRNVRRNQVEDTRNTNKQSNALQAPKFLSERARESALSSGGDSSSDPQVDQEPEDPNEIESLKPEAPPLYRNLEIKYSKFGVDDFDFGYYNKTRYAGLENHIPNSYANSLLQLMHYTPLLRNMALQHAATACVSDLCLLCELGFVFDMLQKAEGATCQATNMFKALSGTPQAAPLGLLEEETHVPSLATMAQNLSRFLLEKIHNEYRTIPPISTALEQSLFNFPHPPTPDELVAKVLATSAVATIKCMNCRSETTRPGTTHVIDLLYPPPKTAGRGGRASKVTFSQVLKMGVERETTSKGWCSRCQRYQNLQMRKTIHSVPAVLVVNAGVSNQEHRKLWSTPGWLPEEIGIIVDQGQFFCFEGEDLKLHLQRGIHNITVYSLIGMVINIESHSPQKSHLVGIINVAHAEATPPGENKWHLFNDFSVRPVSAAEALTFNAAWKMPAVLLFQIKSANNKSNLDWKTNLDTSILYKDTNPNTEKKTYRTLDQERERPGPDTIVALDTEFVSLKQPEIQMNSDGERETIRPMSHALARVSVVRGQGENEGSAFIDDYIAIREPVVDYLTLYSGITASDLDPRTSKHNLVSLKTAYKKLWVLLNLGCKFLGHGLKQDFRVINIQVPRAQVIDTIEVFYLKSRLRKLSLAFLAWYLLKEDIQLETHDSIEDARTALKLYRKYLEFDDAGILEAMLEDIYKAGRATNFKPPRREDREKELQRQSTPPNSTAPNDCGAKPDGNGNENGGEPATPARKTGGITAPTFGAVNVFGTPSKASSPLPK
The assay is described as above. Conditions: both partners purified.

B1: ctPan3 pseudokinase/C-terminal domain (PKC, residues 205–640), purified from E. coli (domain or fragment, Chaetomium thermophilum, UniProt G0S0Y3 205-640, looked up)
chain: RQELQPWQRATYDFFMPQNLREDLQKKQFATLQVIPNSGLPQLEHWHSLVPLDTSNRKNTSCFGYPSWVYKAQNSRNGRHYALRRLEGYRLTNEKAILNVMKDWKKIKNASIVTIHEVFTTREFGDSSLIFAYDFHPLSKTLQEHHFQPIHGNRYRPPPAVPENTIWGYICQIANALKTIHSNRLAARCLEPSKIILTDINRIRLSACAILDVVQFGMNSRSVVELQQEDFVKFGKLILSLATGTLPAHLNNIPAALETLGNKYSANLKSAVNWLLDTSSGETKTIEHFMTGIASQMTTFFDLALQDNDEKLFHLAREVENGRIARSLMKLLTILERGDYDGVPSWSETGDRYQLKLFRDYVFHRVDADGKPNLSIGHMLTCMSKLEAGVDENILLTSRDNETVFVLSYRELRQMYDRAFNELVKASKTGAPGANT
notes: Pan3, Chaetomium thermophilum, pseudokinase (242-497), coiled coil (499-538) and C-terminal domain (555-640), construct residues 205-640; The crystals of ctPan3 PKC alone (PDB 4CYI) were of Se-Met-labelled protein; also called ctPan3 PKC; ctPan3 PKC dimer; source: E. coli, purified (glutathione Sepharose)
Turning to B1, the binding result in assay [1] and in assay [2] was “binds” each time.
